“Also recorded” adds a separate entry of the source.
Assays:
[1] = system: binding of the TS-A12/22 antibody to C5; test: Competitive ELISA on solid-phase C5 after pre-incubation of TS-A12/22 with peptide; design: species or system human; details: 800 ng CS5 or 3.5 μg C5a fragment; highest concentrations used
Protocol: Binding of the antibody, pre-incubated in different conditions, was assessed by immuno-enzymatic assay using C5 on solid phase.
This peptide corresponds to region 727-744 of the mature protein and comprises the cleavage site of C5 convertase (indicated by the arrow) between […] according to SwissProt numbering for human C5 (SEQ ID P01031). The peptide was used in a competitive ELISA assay on the C5 protein on solid phase. Before binding to the solid phase, the TS-A12/22 antibody was pre-incubated with the PSA-18 peptide, corresponding to amino acids 727-744 of the C5 component, or with an unrelated peptide of sequence […] (SEQ ID NO:16 of sequence listing) corresponding to a fibronectin derived peptide termed CS5.

factor C5 = target: T1, factor C5 (Homo sapiens, UniProt P01031); test: Surface plasmon resonance (BIACORE 2000) on C5 immobilized on chip; assay type: binding; details: read-out: KD calculated
T1 construct: C5 alpha and beta subunits were obtained by incubating 50 μg of C5; purchased Quidel
Protocol: The binding affinity of the Tsa-12 antibody, purified by means of FPLC on Superdex 75 (Pharmacia), for factor C5 was measured by means of BIACORE™ 2000 (a system that generates unique data on the interactions between proteins and other molecules). The microchip (CM5, Biacore) was prepared by direct conjugation of the C5 antigen with amines (20 μg/ml in 10 mM Sodium Acetate pH 4.5). The final level of immobilisation turned out to be approximately 1000 RU (Resonance Units). Association and dissociation of antibody molecules from the bio-chip were measured using an optical detection system (Surface Plasmon Resonance). The analysis was carried out at 25° C., at a flow of 15 μl/min, using 4 different scFv concentrations in the range comprised between 100-300 nM, in PBS, 0.005% P20 (Biacore). The binding curves were interpolated 1:1 according to the model of Langmuir, using the dedicated software termed BIAevaluation (version 3.5) with correction for the mass transfer. In order to increase the affinity, the TS-A12 antibody was subjected to substitution (“shuffling”) of the VL light chains. For this purpose the phagemid DNA was cut with BssHII and SaII to excise the VL region. This region was substituted with all the repertoire of VL chains of a preimmune library (Sblattero, D., and Bradbury A., 2000, Nat. Biotechnol. 18:75) that was prepared with same enzymes. […]

C5 [2] = target: T2, C5 (Homo sapiens, UniProt P01031); test: Haemolytic assay / TCC ELISA with EAC1-3b sheep erythrocytes and C5 depleted serum; assay type: biochemical; details: FIG. 1B
T2 construct: C5 alpha and beta subunits were obtained by incubating 50 μg of C5; purchased Quidel
Protocol: (§1) Panel A) The ELISA assay measures the amount of C5a fragment released in the supernatant after enzymatic cleavage of C5, using antibodies anti-C5 as described in example 6. […] Sheep erythrocytes sensitised with antibodies and coated until the C3b (EAC1-3b) complement step were added to the mixture of TS-A12 or TS-A12/22 and C5, and the mixture was further incubated for 30 minutes at 37° C. (panel B).
Sheep erythrocytes (SBRC: Sheep red blood cells) were sensitised with sub-agglutinating amounts of rabbit IgM (EA). […]
(§2) The obtained anti-C5 scFv fragments were further characterised for their ability to inhibit the hemolytic activity of C5 or, in other words, to block conversion of the C5 component to C5a. […] At the end of this procedure, cell lysis was measured as percentage of the control of total lysis in distilled H2O (see FIG. 1, panel B). The inhibition of C5a and TCC production by the scFv TS-A12 and TS-A12/22 was measured by means of ELISA using the monoclonal antibody 17/5 as the capture antibody and antibody G25/2 as detection antibody according to what has been described in Opperman et al., 1991, Complement Inflamm. […] The presence of TCC was measured using antibody aE11 as the capture antibody and a biotinylated anti-C5 antibody (SIGMA-ALDRICH®) followed by alkaline phosphatase-conjugated streptavidin, as described by Tedesco et al. (1997, J Exp. Med. 185:1619).

C5 [3] = target: T2, C5; test: ELISA of C5a released after cleavage of C5 by C5 convertase; assay type: biochemical; details: FIG. 1A, classical pathway
Protocol: as §1, §2

T2 sequence (P01031 678-1676 limits assumed): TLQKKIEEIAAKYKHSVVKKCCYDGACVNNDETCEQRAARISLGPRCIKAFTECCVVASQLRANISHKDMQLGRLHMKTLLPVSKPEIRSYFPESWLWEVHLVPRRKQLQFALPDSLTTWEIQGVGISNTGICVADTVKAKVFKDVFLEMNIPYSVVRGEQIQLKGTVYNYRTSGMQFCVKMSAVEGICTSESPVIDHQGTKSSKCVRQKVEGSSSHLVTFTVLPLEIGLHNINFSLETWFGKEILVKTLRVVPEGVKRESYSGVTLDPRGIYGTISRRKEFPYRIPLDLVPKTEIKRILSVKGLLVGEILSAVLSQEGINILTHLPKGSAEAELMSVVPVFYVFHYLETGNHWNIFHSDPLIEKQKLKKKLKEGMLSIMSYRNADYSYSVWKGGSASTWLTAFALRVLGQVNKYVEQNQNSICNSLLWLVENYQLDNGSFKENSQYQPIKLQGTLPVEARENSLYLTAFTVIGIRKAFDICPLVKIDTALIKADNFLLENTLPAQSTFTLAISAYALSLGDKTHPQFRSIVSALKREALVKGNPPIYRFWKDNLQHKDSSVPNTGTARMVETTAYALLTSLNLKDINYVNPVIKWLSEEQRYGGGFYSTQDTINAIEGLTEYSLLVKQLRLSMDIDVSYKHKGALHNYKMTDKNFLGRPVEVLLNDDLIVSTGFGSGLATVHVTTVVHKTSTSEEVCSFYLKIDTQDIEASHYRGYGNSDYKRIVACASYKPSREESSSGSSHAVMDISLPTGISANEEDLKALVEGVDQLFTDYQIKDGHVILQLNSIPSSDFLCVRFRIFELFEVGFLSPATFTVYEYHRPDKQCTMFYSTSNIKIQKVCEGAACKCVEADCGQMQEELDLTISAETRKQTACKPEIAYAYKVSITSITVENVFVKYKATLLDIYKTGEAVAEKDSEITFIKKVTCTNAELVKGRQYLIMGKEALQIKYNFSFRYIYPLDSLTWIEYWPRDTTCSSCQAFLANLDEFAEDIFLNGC
T2 sequence (P01031 19-673 partner limits assumed): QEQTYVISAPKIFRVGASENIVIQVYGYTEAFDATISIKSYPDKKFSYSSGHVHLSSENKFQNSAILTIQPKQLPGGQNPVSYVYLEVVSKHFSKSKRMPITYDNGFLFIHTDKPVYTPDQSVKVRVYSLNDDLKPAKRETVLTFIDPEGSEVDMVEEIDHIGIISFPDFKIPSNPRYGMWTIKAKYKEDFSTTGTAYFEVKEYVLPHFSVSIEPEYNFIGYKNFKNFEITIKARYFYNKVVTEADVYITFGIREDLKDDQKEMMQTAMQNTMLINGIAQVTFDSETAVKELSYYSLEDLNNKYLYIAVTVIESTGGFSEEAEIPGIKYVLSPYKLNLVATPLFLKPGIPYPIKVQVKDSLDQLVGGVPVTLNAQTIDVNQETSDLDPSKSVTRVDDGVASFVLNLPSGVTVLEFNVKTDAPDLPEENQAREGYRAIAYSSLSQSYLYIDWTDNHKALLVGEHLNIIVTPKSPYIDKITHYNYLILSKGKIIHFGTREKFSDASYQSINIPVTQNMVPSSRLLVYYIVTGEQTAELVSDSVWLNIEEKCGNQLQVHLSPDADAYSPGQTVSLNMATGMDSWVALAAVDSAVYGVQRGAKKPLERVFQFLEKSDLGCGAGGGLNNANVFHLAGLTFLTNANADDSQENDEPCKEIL
Sequence of binding of the TS-A12/22 antibody to C5 (P01031 678-1676 partner limits assumed, one chain of several): as the sequence (P01031 678-1676 limits assumed) above
Sequence of binding of the TS-A12/22 antibody to C5 (P01031 19-673 partner limits assumed, one chain of several): as the sequence (P01031 19-673 partner limits assumed) above
T1 sequence (P01031 678-1676 limits assumed): as the sequence (P01031 678-1676 limits assumed) above
T1 sequence (P01031 19-673 partner limits assumed): as the sequence (P01031 19-673 partner limits assumed) above

Molecule	inhibition of binding of TS-A12/22 to C5 (in words) [1]	Kd (factor C5)	inhibition of formation of TCC (C5 [2])	inhibition of formation of C5a (C5 [3])
GEEIQIGHIPREDVDYHLYP (PEPTIDE (1)..(20) fibronectin derived peptide; listed as Homo sapiens) [CS5, unrelated fibronectin derived peptide]	ineffective; also recorded: NO inhibition	–	–	–
C5A: C5a fragment; human recombinant C5a component purchased from SIGMA-ALDRICH (protein, UniProt P01031 678-751, looked up, C5a anaphylatoxin, C5a fragment; human recombinant C5a component purchased from SIGMA-ALDRICH) C5a anaphylatoxin: TLQKKIEEIAAKYKHSVVKKCCYDGACVNNDETCEQRAARISLGPRCIKAFTECCVVASQLRANISHKDMQLGR	NO inhibition	–	–	–
TS-A12: human anti-C5 single chain scFv antibody clone selected from a naive phage library (protein, listed as Homo sapiens) scFv: DIRMTQSPDSLAVSLGERATINCKSSQSVLYSSNNKNYLAWYQQKPGQPPKLLIYWASTRESGVPDRFSGSGSGTDFTLTISSLQAEDVAVYYCQQYYSTPQLTFGGRTKVDIKSGGSTITSYNVYYTKLSSSGTQVQLQQSEGGVVQPGRSLRLSCAASGFTFSSYGMNWVRQAPGKGLEWVSYISSSSSTIYYADSVKGRFTISRDNSKNTLYLQMNSLRAEDTAVYYCARGPGMDVWGQGTTVTVSS	–	200 nM	inhibit almost completely	inhibit almost completely
